Experiments:
Experiment in all cases: SPR ProteOn, SA immobilized, pH 7.4
[1] = target: T1, cynomolgus monkey serum albumin (generated in-house) (cynomolgus monkey, UniProt A2V9Z4 25-608, limits assumed)
T1 construct: also called cyno SA

[2] = target: T2, mouse serum albumin (Albumin Bioscience 2601) (mouse, UniProt P07724 25-608)
T2 construct: Bought protein; also called mouse SA

[3] = target: T3, human serum albumin (Sigma-Aldrich A3782) (human, UniProt P02768 25-609)
T3 construct: Bought protein; also called HSA; human SA

[4] = target: T4, dog serum albumin (Abcam 119814) (dog, UniProt P49822 25-608)
T4 construct: Bought protein; also called dog SA

[5] = target: T5, rat serum albumin (Sigma-Aldrich A4538) (rat, UniProt P02770 25-608)
T5 construct: Bought protein; also called rat SA

[6] = target: T6, pig serum albumin (Sigma-Aldrich A4414) (pig, UniProt P08835 25-607)
T6 construct: Bought protein; also called pig SA

[7] = target: T7, guinea pig serum albumin (Gentaur GPSA62) (guinea pig)
T7 construct: Bought protein; also called guinea pig SA

B1: serum albumin binder of SEQ ID NO:19 (invention), T023500029 (VHH)
VHH: EVQLVESGGGVVQPGDSLRLSCAASGGTFSTYVMGWFRQAPGKEREFVSAISQNSIHTYYANSVKGRFTISRDNSKNTVYLQLNSLRPEDTALYYCAASRFTSWYTADYEYDYWGQGTLVTVSS
notes: No tag is mentioned there
Which koff [1] does the source give for B1 here?
The koff was 0.00023 s⁻¹.

And the kon [1]?
Its kon is 520000 M⁻¹ s⁻¹.

And the koff [2]?
The koff was 0.00025 s⁻¹.

What about the kon [2] of the same binder?
The kon was 910000 M⁻¹ s⁻¹.

And the koff [3]?
The koff was 0.00027 s⁻¹.

And the kon [3]?
The kon was 610000 M⁻¹ s⁻¹.

And the koff [4]?
The koff was 0.00084 s⁻¹.

What about the kon [4] of the same binder?
The kon was 720000 M⁻¹ s⁻¹.

And the koff [5]?
The koff was 8e-05 s⁻¹.

What about the kon [5] of the same binder?
The kon was 1.2e+06 M⁻¹ s⁻¹.

What about the koff [6] of the same binder?
The koff was 0.0046 s⁻¹.

What about the kon [6] of the same binder?
The kon was 100000 M⁻¹ s⁻¹.

And the Kd [7]?
The Kd was 0.3 nM.

And the koff [7]?
Its koff is 0.00031 s⁻¹.

What about the kon [7] of the same binder?
The kon was 1e+06 M⁻¹ s⁻¹.
